Results as given in the supplement of paper PMC7877785.
± gives the uncertainty stated by the source.

Experiment: self-splicing fitness, log relative to wild type (ln ratio); higher = more splicing; Tetrahymena group I intron in knt gene, E. coli kanamycin selection, DiMSum; sequences stand for … in CUCUCU…GGAGGGAAAAGUUAUCAGGCAUGCACCUGGUAGCUAGUCUUUAAACCAAUAGAUUGCAUCGGUUUAAAAGGCAAGACCGUCAAAUUGCGGGAAAGGGGUCAACAGCCGUUCAGUACCAAGUCUCAGGGGAAACUUUGAGAUGGCCUUGCAAAGGGUAUGGUAAUAAGCUGACGGACAUGGUCCUAACCACGCAGCCAAGUCCUAAGUCAACAGAUCUUCUGUUGAUAUGGAUGCAGUUCACAGACUAAAUGUCGGUCGGGGAAGAUGUAUUCUUCUCAUAAGAUAUAGUCGGACCUCUCCUUAAUGGGAGCUAGCGGAUGAAGUGAUGCAACACUGGAGCCGCUGGGAACUAAUUUGUAUGCGAAAGUAUAUUGAUUAGUUUUGGAGUACUCGUGGUCG
Summary of the method: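 The eight P1ex-region nucleotides of an intron in the knt kanamycin-resistance gene on pET-22b(+) were all randomised and the library put into E. coli BL21(DE3). Six replicate transformations were grown overnight at 37°C or 30°C on LB agar with or without 25 μg/mL kanamycin, together with 100 μg/mL carbenicillin, 50 μM IPTG and 0.2% rhamnose. Colonies were pooled and amplicon-sequenced on an Illumina HiSeq 2500. Fitness from DiMSum is the error-weighted combination of wild-type-normalised replicate fold changes, kanamycin over none.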

Sequence: GAUUAGCAAUAUUACGUUGU
- self-splicing fitness (ln) (30 °C): -2.91 ± 0.23
- self-splicing fitness (ln) (37 °C): -2.15 ± 0.28

Sequence: AAUGAGCAAUAUUACGUCAG
- self-splicing fitness (ln) (30 °C): -1.81 ± 0.45
- self-splicing fitness (ln) (37 °C): -2.32 ± 0.42

Sequence: CAAAAGCAAUAUUACGUAUU
- self-splicing fitness (ln) (30 °C): -4.13 ± 0.18
- self-splicing fitness (ln) (37 °C): -2.78 ± 0.15

Sequence: GUGUAGCAAUAUUACGCAUU
- self-splicing fitness (ln) (30 °C): -2.29 ± 0.3
- self-splicing fitness (ln) (37 °C): -1.97 ± 0.28

Sequence: CGUCAGCAAUAUUACGGGCC
- self-splicing fitness (ln) (30 °C): -1.25 ± 0.087
- self-splicing fitness (ln) (37 °C): -0.797 ± 0.11

Sequence: GCCCAGCAAUAUUACGCCCU
- self-splicing fitness (ln) (30 °C): -0.933 ± 0.12
- self-splicing fitness (ln) (37 °C): -0.685 ± 0.16

Sequence: CAGUAGCAAUAUUACGUUAG
- self-splicing fitness (ln) (30 °C): -1.32 ± 0.072
- self-splicing fitness (ln) (37 °C): 0.119 ± 0.096

Sequence: AUGCAGCAAUAUUACGGUCA
- self-splicing fitness (ln) (30 °C): -1.2 ± 0.14
- self-splicing fitness (ln) (37 °C): -1.08 ± 0.14

Sequence: ACCCAGCAAUAUUACGUAGU
- self-splicing fitness (ln) (30 °C): 0.0959 ± 0.045
- self-splicing fitness (ln) (37 °C): 0.0745 ± 0.058

Sequence: GAGGAGCAAUAUUACGAUGG
- self-splicing fitness (ln) (30 °C): -3.58 ± 0.2
- self-splicing fitness (ln) (37 °C): -2.44 ± 0.22

Sequence: UUUCAGCAAUAUUACGUAAG
- self-splicing fitness (ln) (30 °C): -0.33 ± 0.087
- self-splicing fitness (ln) (37 °C): 0.394 ± 0.13

Sequence: CUGCAGCAAUAUUACGAGCG
- self-splicing fitness (ln) (30 °C): -0.799 ± 0.093
- self-splicing fitness (ln) (37 °C): 0.667 ± 0.11

Sequence: AAGCAGCAAUAUUACGCUAA
- self-splicing fitness (ln) (30 °C): -1.46 ± 0.075
- self-splicing fitness (ln) (37 °C): -1.12 ± 0.086

Sequence: AAAAAGCAAUAUUACGUACC
- self-splicing fitness (ln) (30 °C): -0.981 ± 0.13
- self-splicing fitness (ln) (37 °C): -0.0947 ± 0.14

Sequence: CAUUAGCAAUAUUACGCGUC
- self-splicing fitness (ln) (30 °C): -2.64 ± 0.29
- self-splicing fitness (ln) (37 °C): -2.01 ± 0.26

Sequence: GUAGAGCAAUAUUACGCACG
- self-splicing fitness (ln) (30 °C): -0.718 ± 0.24
- self-splicing fitness (ln) (37 °C): -1.99 ± 0.27

Sequence: ACAUAGCAAUAUUACGUACA
- self-splicing fitness (ln) (30 °C): -2.25 ± 0.16
- self-splicing fitness (ln) (37 °C): -1.25 ± 0.12

Sequence: AGCUAGCAAUAUUACGGCAG
- self-splicing fitness (ln) (30 °C): -1.19 ± 0.1
- self-splicing fitness (ln) (37 °C): -1.08 ± 0.12

Sequence: UAGGAGCAAUAUUACGGACG
- self-splicing fitness (ln) (37 °C): -0.862 ± 0.38

Sequence: UAUCAGCAAUAUUACGCGUC
- self-splicing fitness (ln) (30 °C): -2.53 ± 0.11
- self-splicing fitness (ln) (37 °C): -0.926 ± 0.12

Sequence: CCAAAGCAAUAUUACGGGAC
- self-splicing fitness (ln) (30 °C): -4.28 ± 0.3
- self-splicing fitness (ln) (37 °C): -3.32 ± 0.46

Sequence: GCUAAGCAAUAUUACGUGCG
- self-splicing fitness (ln) (30 °C): -1.07 ± 0.086
- self-splicing fitness (ln) (37 °C): 0.103 ± 0.1

Sequence: CUUUAGCAAUAUUACGAAUC
- self-splicing fitness (ln) (30 °C): -1.01 ± 0.45

Sequence: UCCGAGCAAUAUUACGGGGA
- self-splicing fitness (ln) (30 °C): -1.93 ± 0.15
- self-splicing fitness (ln) (37 °C): -0.603 ± 0.11

Sequence: ACUUAGCAAUAUUACGAUCC
- self-splicing fitness (ln) (30 °C): -1.9 ± 0.15
- self-splicing fitness (ln) (37 °C): -0.595 ± 0.2

Sequence: AAGCAGCAAUAUUACGUAAU
- self-splicing fitness (ln) (30 °C): -1.49 ± 0.068
- self-splicing fitness (ln) (37 °C): -0.923 ± 0.094

Sequence: UACUAGCAAUAUUACGCAAA
- self-splicing fitness (ln) (30 °C): -2.94 ± 0.31
- self-splicing fitness (ln) (37 °C): -0.966 ± 0.2

Sequence: UGAAAGCAAUAUUACGGACU
- self-splicing fitness (ln) (30 °C): 0.219 ± 0.079
- self-splicing fitness (ln) (37 °C): 0.125 ± 0.094

Sequence: CCUUAGCAAUAUUACGAUGA
- self-splicing fitness (ln) (30 °C): -3 ± 0.43
- self-splicing fitness (ln) (37 °C): -1.71 ± 0.28

Sequence: AACGAGCAAUAUUACGCGAA
- self-splicing fitness (ln) (30 °C): -4 ± 0.29
- self-splicing fitness (ln) (37 °C): -2.96 ± 0.28

Sequence: GUGCAGCAAUAUUACGGGGU
- self-splicing fitness (ln) (30 °C): -2.79 ± 0.22
- self-splicing fitness (ln) (37 °C): -2.19 ± 0.24

Sequence: AGUUAGCAAUAUUACGGAUU
- self-splicing fitness (ln) (30 °C): -1.32 ± 0.14
- self-splicing fitness (ln) (37 °C): -0.035 ± 0.16

Sequence: UAGAAGCAAUAUUACGGAGU
- self-splicing fitness (ln) (30 °C): -3.56 ± 0.15
- self-splicing fitness (ln) (37 °C): -2.1 ± 0.13

Sequence: CCACAGCAAUAUUACGGGAC
- self-splicing fitness (ln) (30 °C): -3.78 ± 0.33
- self-splicing fitness (ln) (37 °C): -2.26 ± 0.2

Sequence: GCCGAGCAAUAUUACGGCGG
- self-splicing fitness (ln) (30 °C): -2.62 ± 0.21
- self-splicing fitness (ln) (37 °C): -1.91 ± 0.3

Sequence: UAGCAGCAAUAUUACGCACA
- self-splicing fitness (ln) (30 °C): -0.126 ± 0.072
- self-splicing fitness (ln) (37 °C): 0.0233 ± 0.11

Sequence: UCAUAGCAAUAUUACGCUGG
- self-splicing fitness (ln) (30 °C): -3.05 ± 0.19
- self-splicing fitness (ln) (37 °C): -2.3 ± 0.16

Sequence: UUCAAGCAAUAUUACGGUUG
- self-splicing fitness (ln) (30 °C): -2.96 ± 0.14
- self-splicing fitness (ln) (37 °C): -2.41 ± 0.18

Sequence: AUUAAGCAAUAUUACGGACA
- self-splicing fitness (ln) (30 °C): -0.398 ± 0.22
- self-splicing fitness (ln) (37 °C): -0.339 ± 0.2

Sequence: AGCUAGCAAUAUUACGACAG
- self-splicing fitness (ln) (30 °C): -2.36 ± 0.21
- self-splicing fitness (ln) (37 °C): -1.64 ± 0.24

Sequence: GUAUAGCAAUAUUACGGAAA
- self-splicing fitness (ln) (30 °C): -2.1 ± 0.43
- self-splicing fitness (ln) (37 °C): -2.81 ± 0.32

Sequence: GGGCAGCAAUAUUACGCAGU
- self-splicing fitness (ln) (30 °C): -0.715 ± 0.14
- self-splicing fitness (ln) (37 °C): -0.784 ± 0.18

Sequence: UACGAGCAAUAUUACGUCAC
- self-splicing fitness (ln) (30 °C): -2.59 ± 0.25
- self-splicing fitness (ln) (37 °C): -2.09 ± 0.32

Sequence: UCCUAGCAAUAUUACGCAAC
- self-splicing fitness (ln) (30 °C): -2.76 ± 0.21
- self-splicing fitness (ln) (37 °C): -3.38 ± 0.42

Sequence: CUUAAGCAAUAUUACGUUAG
- self-splicing fitness (ln) (30 °C): -3.59 ± 0.23
- self-splicing fitness (ln) (37 °C): -1.59 ± 0.17

Sequence: UGUCAGCAAUAUUACGGUUA
- self-splicing fitness (ln) (30 °C): -0.384 ± 0.089
- self-splicing fitness (ln) (37 °C): 0.239 ± 0.087

Sequence: ACCCAGCAAUAUUACGUAGC
- self-splicing fitness (ln) (30 °C): -0.673 ± 0.044
- self-splicing fitness (ln) (37 °C): -0.163 ± 0.064

Sequence: GCCCAGCAAUAUUACGACUG
- self-splicing fitness (ln) (30 °C): -4.23 ± 0.22
- self-splicing fitness (ln) (37 °C): -2.44 ± 0.19
